Laboratory results: PMC7672075
Where no end group is shown, it is not given here. [ ]: non-standard residue; d: D form. pS = N[C@@H](COP(=O)(O)O)C(=O)O

Each binder was assayed against TRF2, endogenous (U2OS) (human (endogenous in U2OS)) (UniProt Q15554) (assay: not given).
Chain of UniProt Q15554 (Q15554 whole entry): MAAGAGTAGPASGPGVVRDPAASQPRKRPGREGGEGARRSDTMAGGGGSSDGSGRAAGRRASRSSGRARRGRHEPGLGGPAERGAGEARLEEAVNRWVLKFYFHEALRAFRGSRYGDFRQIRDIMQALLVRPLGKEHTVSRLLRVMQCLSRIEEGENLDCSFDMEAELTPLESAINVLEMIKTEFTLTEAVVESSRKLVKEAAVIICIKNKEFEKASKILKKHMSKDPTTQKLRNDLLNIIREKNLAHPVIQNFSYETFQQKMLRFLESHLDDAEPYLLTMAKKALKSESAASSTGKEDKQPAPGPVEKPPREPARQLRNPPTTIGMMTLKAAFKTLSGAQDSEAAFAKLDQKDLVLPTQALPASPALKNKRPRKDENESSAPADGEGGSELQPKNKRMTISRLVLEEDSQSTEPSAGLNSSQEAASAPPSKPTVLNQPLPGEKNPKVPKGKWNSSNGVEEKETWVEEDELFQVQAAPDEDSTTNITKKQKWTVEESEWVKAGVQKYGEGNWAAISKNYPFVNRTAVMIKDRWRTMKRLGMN

percentage of HeLa cells with >5 FLAG-MCPH1 foci at telomeres (immunostaining and telomere PNA-FISH), functional telomeres	Binder
11 % of cells	FLAG-tagged WT MCPH1 (human) (natural protein) MAAPILKDVVAYVEVWSSNGTENYSKTFTTQLVDMGAKVSKTFNKQVTHVIFKDGYQSTWDKAQKRGVKLVSVLWVEKCRTAGAHIDESLFPAANMNEHLSSLIKKKRKCMQPKDFNFKTPENDKRFQKKFEKMAKELQRQKTNLDDDVPILLFESNGSLIYTPTIEINSRHHSAMEKRLQEMKEKRENLSPTSSQMIQQSHDNPSNSLCEAPLNISRDTLCSDEYFAGGLHSSFDDLCGNSGCGNQERKLEGSINDIKSDVCISSLVLKANNIHSSPSFTHLDKSSPQKFLSNLSKEEINLQRNIAGKVVTPDQKQAAGMSQETFEEKYRLSPTLSSTKGHLLIHSRPRSSSVKRKRVSHGSHSPPKEKCKRKRSTRRSIMPRLQLCRSEDRLQHVAGPALEALSCGESSYDDYFSPDNLKERYSENLPPESQLPSSPAQLSCRSLSKKERTSIFEMSDFSCVGKKTRTVDITNFTAKTISSPRKTGNGEGRATSSCVTSAPEEALRCCRQAGKEDACPEGNGFSYTIEDPALPKGHDDDLTPLEGSLEEMKEAVGLKSTQNKGTTSKISNSSEGEAQSEHEPCFIVDCNMETSTEEKENLPGGYSGSVKNRPTRHDVLDDSCDGFKDLIKPHEELKKSGRGKKPTRTLVMTSMPSEKQNVVIQVVDKLKGFSIAPDVCETTTHVLSGKPLRTLNVLLGIARGCWVLSYDWVLWSLELGHWISEEPFELSHHFPAAPLCRSECHLSAGPYRGTLFADQPAMFVSPASSPPVAKLCELVHLCGGRVSQVPRQASIVIGPYSGKKKATVKYLSEKWVLDSITQHKVCAPENYLLSQ
48 % of cells	FLAG-MCPH1^S333A (natural protein) MAAPILKDVVAYVEVWSSNGTENYSKTFTTQLVDMGAKVSKTFNKQVTHVIFKDGYQSTWDKAQKRGVKLVSVLWVEKCRTAGAHIDESLFPAANMNEHLSSLIKKKRKCMQPKDFNFKTPENDKRFQKKFEKMAKELQRQKTNLDDDVPILLFESNGSLIYTPTIEINSRHHSAMEKRLQEMKEKRENLSPTSSQMIQQSHDNPSNSLCEAPLNISRDTLCSDEYFAGGLHSSFDDLCGNSGCGNQERKLEGSINDIKSDVCISSLVLKANNIHSSPSFTHLDKSSPQKFLSNLSKEEINLQRNIAGKVVTPDQKQAAGMSQETFEEKYRLAPTLSSTKGHLLIHSRPRSSSVKRKRVSHGSHSPPKEKCKRKRSTRRSIMPRLQLCRSEDRLQHVAGPALEALSCGESSYDDYFSPDNLKERYSENLPPESQLPSSPAQLSCRSLSKKERTSIFEMSDFSCVGKKTRTVDITNFTAKTISSPRKTGNGEGRATSSCVTSAPEEALRCCRQAGKEDACPEGNGFSYTIEDPALPKGHDDDLTPLEGSLEEMKEAVGLKSTQNKGTTSKISNSSEGEAQSEHEPCFIVDCNMETSTEEKENLPGGYSGSVKNRPTRHDVLDDSCDGFKDLIKPHEELKKSGRGKKPTRTLVMTSMPSEKQNVVIQVVDKLKGFSIAPDVCETTTHVLSGKPLRTLNVLLGIARGCWVLSYDWVLWSLELGHWISEEPFELSHHFPAAPLCRSECHLSAGPYRGTLFADQPAMFVSPASSPPVAKLCELVHLCGGRVSQVPRQASIVIGPYSGKKKATVKYLSEKWVLDSITQHKVCAPENYLLSQ

What follows are binders tested against TRF2^TRFH (TRF Homology domain of human TRF2, residues 42–245) (human) (assay: ITC; MCPH1^TBM peptides at 1.0 mM in the syringe titrated into TRF2^TRFH at 0.1 mM in the sample cell; 20 °C; 25 mM Tris-HCl pH 8.0, 150 mM NaCl).

Kd	Binder
0.24 µM	SQETFEEKYRLSPTLSSTKGH [MCPH1^TBM peptide, wild type, synthetic]
79 µM	SQETFEEKYRL[pS]PTLSSTKGH (also: phosphoserine at S333, position in peptide not given here) [MCPH1^TBM peptide phosphorylated at S333, synthetic]
14 µM	SQETFEEKYRLEPTLSSTKGH [MCPH1^TBM peptide S333E, synthetic]

Second part, the binder before the results:

Binder	Kd
SQETFEEKYRLAPTLSSTKGH [MCPH1^TBM peptide S333A, synthetic]	0.16 µM
SQETFEEKYRLDPTLSSTKGH [MCPH1^TBM peptide S333D, synthetic]	21 µM
SQETFEEKYRLSATLSSTKGH [MCPH1^TBM peptide P334A, synthetic]	24 µM
